Test in all cases: two-hybrid
Test [1] has as its target HP0221-T25 (NifU) (Helicobacter pylori strain 26695) (UniProt O25009).
Test [2] deals with T25-HP0220 (NifS) (Helicobacter pylori strain 26695) (UniProt O25008).
The target in test [3] is T25-HP1492 (Nfu) (Helicobacter pylori strain 26695) (UniProt O26025).
Test [4] concerns the target T25-HP0221 (NifU) (Helicobacter pylori strain 26695) (UniProt O25009).
The target in another test is T25-Zip.
T25-Zip, sequence (P03069 whole entry): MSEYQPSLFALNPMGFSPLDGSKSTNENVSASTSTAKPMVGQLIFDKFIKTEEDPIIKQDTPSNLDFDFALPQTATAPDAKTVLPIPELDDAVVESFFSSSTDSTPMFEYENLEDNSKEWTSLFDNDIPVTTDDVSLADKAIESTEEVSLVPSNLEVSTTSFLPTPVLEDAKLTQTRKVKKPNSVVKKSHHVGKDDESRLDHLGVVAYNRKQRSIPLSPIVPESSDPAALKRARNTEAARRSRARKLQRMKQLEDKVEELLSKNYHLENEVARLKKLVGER

T18-Zip (domain or fragment), sequence (P03069 whole entry, the tested form may be a part): as the sequence (P03069 whole entry) above

For T18-HP1492 (natural protein), the growth OD595 in M63-maltose was 0.29 OD595 in test [1], 0.32 OD595 in test [2], 0.39 OD595 in test [3] and 0.13 OD595 in test [4].

For T18-Zip (domain or fragment), the growth OD595 in M63-maltose with T25-Zip amounted to 0.23 OD595.

“T18-HP1406 (from UniProt O25956 2-282) (natural protein)” had a growth OD595 in M63-maltose in test [1] of 0.26 OD595.

In the case of “T18-HP1266 (from UniProt O25856 2-844) (natural protein)”, the growth OD595 in M63-maltose in test [4] turned out to be 0.32 OD595.

In turn, “T18-HP0768 (from UniProt P56414 2-321) (natural protein)” showed a growth OD595 in M63-maltose in test [1] of 0.21 OD595.

Turning to “T18-HP0285 (from UniProt P56130 2-418) (natural protein)”, the growth OD595 in M63-maltose in test [1] was 0.25 OD595.

For the substance “T18-HP0117 (from UniProt P56080 2-308) (natural protein)”, the growth OD595 in M63-maltose in test [1] turned out to be 0.36 OD595.

“T18-HP0468 (from UniProt O25214 2-495) (natural protein)”: the growth OD595 in M63-maltose in test [1] is 0.29 OD595.

As to “T18-HP0934 (from UniProt O25588 2-251) (natural protein)”, in test [1], the growth OD595 in M63-maltose came to 0.13 OD595.

For “T18-HP0221 (from UniProt O25009 2-326) (natural protein)”, the growth OD595 in M63-maltose in test [4] stood at 0.37 OD595.

Regarding “T18-HP0142 (from UniProt O24954 2-328) (natural protein)”, the growth OD595 in M63-maltose in test [1] turned out to be 0.44 OD595.

Substance “T18-HP0400 (from UniProt P65185 2-274) (natural protein)” registered a growth OD595 in M63-maltose in test [4] of 0.11 OD595.

Values taken from publication PMC5943153.
